Test results taken from article PMC5434536.

Molecular target: TIP60, endogenous in C4-2 cells (human (endogenous in C4-2)) (UniProt Q92993)
Experiment: co-IP; endogenous proteins, C4-2 lysates; TIP60 immunoprecipitated with anti-TIP60; cells +/- 10 nM MB for 24 h; also cells transfected with siCtrl or siING3 and treated with MB; blot for AR

Chain of TIP60, endogenous in C4-2 cells (human (endogenous in C4-2)) (Q92993 whole entry): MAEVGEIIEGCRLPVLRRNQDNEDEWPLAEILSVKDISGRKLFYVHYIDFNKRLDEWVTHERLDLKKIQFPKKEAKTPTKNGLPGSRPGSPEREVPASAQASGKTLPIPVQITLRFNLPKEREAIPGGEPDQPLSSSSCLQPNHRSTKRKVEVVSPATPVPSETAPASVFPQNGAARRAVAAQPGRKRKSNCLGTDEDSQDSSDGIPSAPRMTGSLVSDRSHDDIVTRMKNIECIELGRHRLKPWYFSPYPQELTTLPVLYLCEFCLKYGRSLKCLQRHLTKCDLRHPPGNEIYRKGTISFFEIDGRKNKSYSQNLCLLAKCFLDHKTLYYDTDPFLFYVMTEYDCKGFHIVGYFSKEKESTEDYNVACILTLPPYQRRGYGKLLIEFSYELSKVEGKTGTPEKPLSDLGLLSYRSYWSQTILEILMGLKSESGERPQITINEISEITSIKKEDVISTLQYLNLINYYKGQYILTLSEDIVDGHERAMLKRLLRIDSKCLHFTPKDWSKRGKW
Chain of androgen receptor (AR), endogenous in C4-2 cells (P10275 whole entry): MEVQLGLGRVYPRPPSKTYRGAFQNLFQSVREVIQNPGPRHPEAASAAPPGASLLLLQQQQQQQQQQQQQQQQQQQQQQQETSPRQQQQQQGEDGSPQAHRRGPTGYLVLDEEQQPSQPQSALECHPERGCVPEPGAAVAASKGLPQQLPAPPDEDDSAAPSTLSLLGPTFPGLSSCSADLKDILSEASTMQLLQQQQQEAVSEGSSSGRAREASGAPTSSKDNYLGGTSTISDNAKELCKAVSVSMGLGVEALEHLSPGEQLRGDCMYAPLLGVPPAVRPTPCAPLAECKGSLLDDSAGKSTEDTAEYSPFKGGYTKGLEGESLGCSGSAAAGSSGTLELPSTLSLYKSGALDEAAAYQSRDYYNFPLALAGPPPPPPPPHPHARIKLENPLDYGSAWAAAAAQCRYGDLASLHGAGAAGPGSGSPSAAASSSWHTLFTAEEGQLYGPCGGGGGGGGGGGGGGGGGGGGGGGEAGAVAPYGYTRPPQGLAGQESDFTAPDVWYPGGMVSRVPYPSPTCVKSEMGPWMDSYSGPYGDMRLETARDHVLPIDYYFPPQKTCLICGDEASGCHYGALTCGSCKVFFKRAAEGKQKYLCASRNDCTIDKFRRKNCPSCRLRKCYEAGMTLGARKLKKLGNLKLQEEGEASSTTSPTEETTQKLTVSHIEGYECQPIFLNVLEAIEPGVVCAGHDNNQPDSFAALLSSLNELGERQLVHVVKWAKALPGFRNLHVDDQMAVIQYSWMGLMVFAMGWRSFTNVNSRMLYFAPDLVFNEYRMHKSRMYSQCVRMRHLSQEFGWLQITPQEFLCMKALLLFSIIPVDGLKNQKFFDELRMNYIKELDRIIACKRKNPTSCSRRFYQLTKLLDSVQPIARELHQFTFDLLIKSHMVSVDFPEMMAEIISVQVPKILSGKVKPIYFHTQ

fold reduction of the AR-TIP60 association with siING3 against siCtrl: 3 fold
Substance: androgen receptor (AR), endogenous in C4-2 cells (from UniProt P10275 1-920)
